From publication doi:10.1101/2025.07.01.662521, “Ligand-induced Conformational Plasticity of the CTLH E3 Ligase Receptor GID4” (bioRxiv, 2025)

Target: T1, Human Glucose-induced degradation protein 4 homolog (GID4), residues 116-300, N-terminally Avi-tagged, … (human, UniProt Q8IVV7 116-300, biotin (BirA, on the AVI tag))
T1 construct: Glucose-induced degradation protein 4 homolog (GID4), human, UniProt Q8IVV7, residues 116-300; Construct: N-terminal Strep-SUMO-3C-6xHis-AVI-tag; cleaved with HRV-3C protease, which by the printed order of the tags should leave 6xHis-AVI on the protein; also called hGID4; biotinylated GID4; source: E. coli BL21(DE3), purified (Streptactin XT, HRV-3C cleavage, BirA biotinylation, SEC); not shown: …
T1 sequence (looked up): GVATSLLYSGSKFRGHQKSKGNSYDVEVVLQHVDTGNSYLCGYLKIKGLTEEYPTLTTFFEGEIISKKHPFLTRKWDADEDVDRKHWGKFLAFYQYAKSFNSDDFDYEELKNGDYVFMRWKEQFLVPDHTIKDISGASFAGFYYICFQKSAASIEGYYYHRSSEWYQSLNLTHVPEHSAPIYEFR
Assay: SPR; biotinylated GID4 (116-300) captured on an SA chip (about 2500 RU), Biacore 8K; peptide flowed over; PBS pH 7.4, 0.05% P-20, 1 mM DTT, 1% DMSO
Conditions: both partners purified

B1: degron peptide PGLWKS (peptide)
peptide: PGLWKS
notes: Pro/N-degron peptide; also called endogenous degron peptide; PGLWKS degron peptide
For B1, which Kd is on record?
Its Kd is 2130 nM.
